# Residue numbers refer to the chain shown, from its start.
# B1: IL6R-P753/IL6R-L (antibody, human IgG1, kappa)
# heavy: QVQLQESGPGLVKPSETLSLTCAVSGHSISHDHAWSWVRQPPGEGLEWIGFISYSGITNYNPSLQGRVTISRDNSKNTLYLQMNSLRAEDTAVYYCARSLARTTAMDYWGEGTLVTVSSASTKGPSVFPLAPSSKSTSGGTAALGCLVKDYFPEPVTVSWNSGALTSGVHTFPAVLQSSGLYSLSSVVTVPSSSLGTQTYICNVNHKPSNTKVDKKVEPKSCDKTHTCPPCPAPELFGQDSVMLFPPKPKDTLMISRTPEVTCVVVDVSPEDPEVKFNWYVDGVEVHNAKTKPREEQENSTYRVVSVLTVLHQDWLNGKEYKCEVHNKALPAPIEKTISKAKGQPREPQVYTLPPSRDELTKNQVSLTCLVKGFYPSDIAVEWESNGQPENNYKTTPPVLDSDGSFFLYSKLTVDKSRWQQGNVFSCSVMHEALHNHYTQKSLSLSP
# light: not shown
# B2: IL6R-P768/IL6R-L (antibody, human IgG1, kappa)
# heavy: QVQLQESGPGLVKPSETLSLTCAVSGHSISHDHAWSWVRQPPGEGLEWIGFISYSGITNYNPSLQGRVTISRDNSKNTLYLQMNSLRAEDTAVYYCARSLARTTAMDYWGEGTLVTVSSASTKGPSVFPLAPSSKSTSGGTAALGCLVKDYFPEPVTVSWNSGALTSGVHTFPAVLQSSGLYSLSSVVTVPSSSLGTQTYICNVNHKPSNTKVDKKVEPKSCDKTHTCPPCPAPELLGGDSVFLFPPKPKDTLMISRTPEVTCVVIDVAHEDGEVKFNWYVDGVEVHNAKTKPREEQYNSTYRVVSVLTVLHQDWLNGKEYKCKVSNKGLPSSIEKTISKAKGQPREPQVYTLPPSRDELTKNQVSLTCLVKGFYPSDIAVEWESNGQPENNYKTTPPVLDSDGSFFLYSKLTVDKSRWQQGNVFSCSVMHEALHNHYTQKSLSLSP
# light: not shown
# B3: IL6R-P757/IL6R-L (antibody, human IgG1, kappa)
# heavy: B2 heavy with H270E
# light: not shown
# B4: IL6R-P766/IL6R-L (antibody, human IgG1, kappa)
# heavy: B2 heavy with I266V, H270E
# light: not shown
# B5: IL6R-P754/IL6R-L (antibody, human IgG1, kappa)
# heavy: B1 heavy with F237L, E324A, A332H
# light: not shown
# B6: IL6R-P756/IL6R-L (antibody, human IgG1, kappa)
# heavy: B2 heavy with E235D, H270E
# light: not shown
# B7: IL6R-P765/IL6R-L (antibody, human IgG1, kappa)
# heavy: B2 heavy with G329A, S332A, S333P
# light: not shown
# B8: IL6R-P764/IL6R-L (antibody, human IgG1, kappa)
# heavy: B2 heavy with A269S, H270E, G329A, S332A, S333P
# light: not shown
# B9: IL6R-P762/IL6R-L (antibody, human IgG1, kappa)
# heavy: B2 heavy with I266V, A269S
# light: not shown
# B10: IL6R-P763/IL6R-L (antibody, human IgG1, kappa)
# heavy: B2 heavy with I266V, H270E, G329A, S332A, S333P
# light: not shown
# B11: IL6R-P769/IL6R-L (antibody, human IgG1, kappa)
# heavy: B2 heavy with A269S, G329A, S332A, S333P
# light: not shown
# B12: IL6R-P755/IL6R-L (antibody, human IgG1, kappa)
# heavy: B1 heavy with F237L, A332H
# light: not shown
# B13: IL6R-P759/IL6R-L (antibody, human IgG1, kappa)
# heavy: B2 heavy with E235D, G239D, I266V, A269S, H270D
# light: not shown
# B14: IL6R-P761/IL6R-L (antibody, human IgG1, kappa)
# heavy: B2 heavy with E235D, G239D, I266V, A269S, H270E
# light: not shown
# B15: IL6R-P760/IL6R-L (antibody, human IgG1, kappa)
# heavy: B2 heavy with G239D, I266V, A269S, H270E
# light: not shown
# B16: IL6R-P758/IL6R-L (antibody, human IgG1, kappa)
# heavy: B2 heavy with G239D, I266V, A269S, H270D
# light: not shown
# B17: IL6R-P767/IL6R-L (antibody, human IgG1, kappa)
# heavy: B2 heavy with A269S, H270E
# light: not shown
# Biological target: T1, human FcγRIa extracellular domain with C-terminal His tag (human, UniProt P12314 16-292)
# T1 construct: Whole entry named; also called FcgRIa
# T1 sequence (P12314 16-292): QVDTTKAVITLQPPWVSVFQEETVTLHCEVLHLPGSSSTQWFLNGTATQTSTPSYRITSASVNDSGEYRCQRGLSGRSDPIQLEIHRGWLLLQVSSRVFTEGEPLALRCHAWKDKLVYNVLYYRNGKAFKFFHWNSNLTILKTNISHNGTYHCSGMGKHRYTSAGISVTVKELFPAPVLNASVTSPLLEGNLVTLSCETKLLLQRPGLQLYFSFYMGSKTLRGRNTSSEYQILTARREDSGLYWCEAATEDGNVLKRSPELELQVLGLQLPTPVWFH
# Test: SPR, antibody captured, FcgR analyte
row,Binder,Kd [nM]
1,B1,110
2,B2,3.3
3,B3,1.7
4,B4,0.97
5,B5,190
6,B6,1.1
7,B7,1.8
8,B8,3.7
9,B9,6.1
10,B10,0.73
11,B11,12
12,B12,85
13,B13,5.5
14,B14,8
15,B15,15
16,B16,11
17,B17,5.4

# Biological target: T2, human FcγRIIa R type extracellular domain with C-terminal His tag (human, UniProt P12318 34-217)
# T2 construct: extracellular domain; also called FcgRIIaR
# T2 sequence (looked up): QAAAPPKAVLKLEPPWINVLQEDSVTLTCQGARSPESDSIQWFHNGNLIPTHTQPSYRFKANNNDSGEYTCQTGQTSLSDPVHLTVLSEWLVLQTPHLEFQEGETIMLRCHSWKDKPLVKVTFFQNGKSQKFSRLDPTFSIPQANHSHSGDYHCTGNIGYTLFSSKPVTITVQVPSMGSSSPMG
# Test: SPR, antibody captured, FcgR analyte
row,Binder,Kd [nM]
1,B1,18000
2,B2,2800
3,B3,2300
4,B4,2200
5,B5,10000
6,B6,1700
7,B7,2100
8,B8,2100
9,B9,3400
10,B10,1600
11,B11,2900
12,B12,17000
13,B13,1400
14,B14,1100
15,B15,1600
16,B16,1900
17,B17,2800

# Biological target: T3, human FcγRIIb extracellular domain with C-terminal His tag (human, UniProt P31994 43-217)
# T3 construct: extracellular domain; also called FcgRIIb
# T3 sequence (looked up): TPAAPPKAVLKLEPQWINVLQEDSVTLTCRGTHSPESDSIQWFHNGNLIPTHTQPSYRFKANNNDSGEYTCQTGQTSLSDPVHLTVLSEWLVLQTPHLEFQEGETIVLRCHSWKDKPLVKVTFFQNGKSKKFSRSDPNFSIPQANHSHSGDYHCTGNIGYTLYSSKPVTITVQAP
# Test: SPR, antibody captured, FcgR analyte
row,Binder,Kd [nM]
1,B1,2800
2,B2,170
3,B3,100
4,B4,290
5,B5,7700
6,B6,52
7,B7,53
8,B8,50
9,B9,550
10,B10,100
11,B11,74
12,B12,4100
13,B13,150
14,B14,120
15,B15,190
16,B16,260
17,B17,120

# Biological target: T1, human FcγRIa extracellular domain with …
# Test: SPR, KD of IL6R-G1d/IL6R-L divided by KD of variant
row,Binder,Relative FcgRIa-binding Activity
1,B1,0.003
2,B2,0.097
3,B3,0.188
4,B4,0.33
5,B5,0.002
6,B6,0.291
7,B7,0.178
8,B8,0.086
9,B9,0.052
10,B10,0.438
11,B11,0.027
12,B12,0.004
13,B13,0.058
14,B14,0.04
15,B15,0.021
16,B16,0.029
17,B17,0.059

# Biological target: T2, human FcγRIIa R type extracellular …
# Test: as above
row,Binder,Relative FcgRIIaR-binding Activity
1,B1,0.06
2,B2,0.39
3,B3,0.48
4,B4,0.5
5,B5,0.11
6,B6,0.65
7,B7,0.52
8,B8,0.52
9,B9,0.32
10,B10,0.69
11,B11,0.38
12,B12,0.06
13,B13,0.79
14,B14,1
15,B15,0.69
16,B16,0.58
17,B17,0.39

# Biological target: T4, human FcγRIIa H type extracellular domain with C-terminal His tag (human, UniProt P12318 34-217)
# T4 construct: extracellular domain; also called FcgRIIaH
# T4 sequence (looked up): T2 sequence (looked up) with R134H
# Test: as above
row,Binder,Relative FcgRIIaH-binding Activity
1,B1,0.014
2,B2,0.027
3,B3,0.026
4,B4,0.025
5,B5,0.003
6,B6,0.03
7,B7,0.028
8,B8,0.026
9,B9,0.021
10,B10,0.034
11,B11,0.007
12,B12,0.005
13,B13,0.024
14,B14,0.036
15,B15,0.027
16,B16,0.021
17,B17,0.02

# Biological target: T3, human FcγRIIb extracellular domain with …
# Test: as above
row,Binder,Relative FcgRIIb-binding Activity
1,B1,0.8
2,B2,12.4
3,B3,21
4,B4,7.2
5,B5,0.3
6,B6,40.4
7,B7,39.6
8,B8,42
9,B9,3.8
10,B10,21
11,B11,28.4
12,B12,0.5
13,B13,14
14,B14,17.5
15,B15,11.1
16,B16,8.1
17,B17,17.5

# Biological target: T5, human FcγRIIIa V type extracellular domain with C-terminal His tag (human, UniProt P08637 17-208)
# T5 construct: extracellular domain; also called FcgRIIIaV
# T5 sequence (P08637 17-208 F176V): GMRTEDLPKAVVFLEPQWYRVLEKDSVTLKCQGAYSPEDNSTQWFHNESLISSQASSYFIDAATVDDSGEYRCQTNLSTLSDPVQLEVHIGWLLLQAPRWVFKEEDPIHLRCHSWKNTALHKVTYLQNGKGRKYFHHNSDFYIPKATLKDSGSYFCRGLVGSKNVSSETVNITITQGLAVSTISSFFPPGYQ
# Test: as above
row,Binder,Relative FcgRIIIaV-binding Activity
1,B1,0.007
2,B2,0.008
3,B3,0.008
4,B4,0.008
5,B5,0.004
6,B6,0.007
7,B7,0.008
8,B8,0.006
9,B9,0.007
10,B10,0.014
11,B11,0.006
12,B12,0.005
13,B13,0.005
14,B14,0.008
15,B15,0.008
16,B16,0.006
17,B17,0.005

# — US20220411483A1 (Chugai, published 2022)
